Molecular target: T1, recombinant full-length human PUMA (residue 1-193) (human, UniProt Q9BXH1 1-193)
T1 construct: Expressed as a GST fusion from pGEX-TEV (TEV site present); also called PUMA protein
T1 sequence (looked up): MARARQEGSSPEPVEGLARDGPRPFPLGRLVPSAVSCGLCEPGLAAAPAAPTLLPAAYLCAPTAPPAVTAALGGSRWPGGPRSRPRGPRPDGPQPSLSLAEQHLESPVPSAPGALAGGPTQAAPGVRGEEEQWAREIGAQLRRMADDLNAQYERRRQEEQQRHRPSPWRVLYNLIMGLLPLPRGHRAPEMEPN
Test: ELISA; PAK1 recombinant protein immobilised on a 96-well plate with 0.5% paraformaldehyde; chemicals (25 or 50 uM) added, then PUMA protein, 2 hr; detected with anti-PUMA antibody and anti-rabbit IgG-HRP, absorbance at 450 nm
Settings: both partners purified

- binding result: binds
B1: GST-PAK1 N-terminal domain (residues 70-149) (domain or fragment, human, UniProt Q13153 70-149, looked up)
chain: KERPEISLPSDFEHTIHVGFDAVTGEFTGMPEQWARLLQTSNITKSEQKKNPQAVLDVLEFYNSKKTSNSQKYMSFTDKS
notes: Cloned in pGEX-TEV (pGEX-4T1 with a TEV site); pGEX vectors put GST at the N-terminus (surmised); GST is kept on agarose beads in the pull-downs; the discussion says the N-terminal region of PAK1 was used for the screening; also called PAK1 recombinant protein; N-terminal region of PAK1

From paper PMC5410337, “Anti-cancer effect of novel PAK1 inhibitor via induction of PUMA-mediated cell death and p21-mediated cell cycle arrest” (Oncotarget, 2017)
